Measured values as given in PMC12183613, “Identification of novel small molecule inhibitors of ETS transcription factors”.

Molecular target: ETV6 full-length (UniProt P41212 1-452)
Assay: pull-down; fragment Fr18 (enhanced binding); Pull-down: 4 C, 30 min, 1 ug poly(dI/dC), 4 mM spermidine; wash in binding buffer 50 mM KCl, 10 mM HEPES pH 7.6, 5 mM MgCl2, 10 mM Tris pH 8, 0.05 mM EDTA, 0.1% Triton X-100, 20% glycerol. SPR: 25 mM HEPES pH 7.5, 100 mM NaCl, 1 mM EDTA, 1 mM beta-mercaptoethanol; NMR same buffer (296 K)
Conditions: protein: ivt; tags: FLAG; only one strand given

ETV6 full-length, sequence (P41212 whole entry, the tested form may be a part): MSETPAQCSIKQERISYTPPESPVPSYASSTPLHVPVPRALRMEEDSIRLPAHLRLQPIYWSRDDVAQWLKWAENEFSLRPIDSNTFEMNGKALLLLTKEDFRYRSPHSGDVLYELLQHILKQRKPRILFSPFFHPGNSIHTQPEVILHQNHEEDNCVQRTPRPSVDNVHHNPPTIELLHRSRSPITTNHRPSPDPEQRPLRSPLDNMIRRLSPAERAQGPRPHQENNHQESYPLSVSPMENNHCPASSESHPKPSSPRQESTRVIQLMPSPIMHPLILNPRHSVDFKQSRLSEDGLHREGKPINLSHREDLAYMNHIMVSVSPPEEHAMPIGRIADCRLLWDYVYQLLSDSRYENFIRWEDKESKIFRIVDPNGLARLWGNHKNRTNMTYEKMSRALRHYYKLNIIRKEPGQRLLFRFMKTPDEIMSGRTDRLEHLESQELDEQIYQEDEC

B1: 3x consensus ETS oligonucleotide (biotinylated) (dsDNA)
DNA 1: ACCGGAAGTACCGGAAGTACCGGAAGT
DNA 2: ACTTCCGGTACTTCCGGTACTTCCGGT
B1: binds.
